In this assay the target is activated complement component C3 (C3b) (UniProt P01024). As to the kind of experiment: SPR.

In turn, Factor B (natural protein) came in with a response (RU), median, C3b-chip 2 of 17 RU.

The values are drawn from publication PMC10695638.
